Here are results for six molecules from publication doi:10.1101/2024.10.14.618187, “Molecular basis of interchain disulfide-bond formation in BMP-9 and BMP-10” (bioRxiv, 2024).

For series [1], the target named is BMP-9 dimer (disulfide-linked BMP-9 growth factor homodimer) (human) (UniProt Q9UK05).
Series [2] concerns the target BMP-9 monomer (cysteinylated BMP-9 growth factor) (human) (UniProt Q9UK05).
Series [3] deals with the molecule itself. The series is described as follows: crystal structure; BMP-10 Crystal Chimera; 25% 1,2-propanediol, 100 mM phosphate pH 6.2, 10% glycerol.
A further series has as its target BMP-10 monomer (human) (UniProt O95393).
A further series has as its target BMP-10 dimer (human) (UniProt O95393).
The target in series [4] is T1, Pro-(X)-BMP-10 R353K, O95393.
T1 chain: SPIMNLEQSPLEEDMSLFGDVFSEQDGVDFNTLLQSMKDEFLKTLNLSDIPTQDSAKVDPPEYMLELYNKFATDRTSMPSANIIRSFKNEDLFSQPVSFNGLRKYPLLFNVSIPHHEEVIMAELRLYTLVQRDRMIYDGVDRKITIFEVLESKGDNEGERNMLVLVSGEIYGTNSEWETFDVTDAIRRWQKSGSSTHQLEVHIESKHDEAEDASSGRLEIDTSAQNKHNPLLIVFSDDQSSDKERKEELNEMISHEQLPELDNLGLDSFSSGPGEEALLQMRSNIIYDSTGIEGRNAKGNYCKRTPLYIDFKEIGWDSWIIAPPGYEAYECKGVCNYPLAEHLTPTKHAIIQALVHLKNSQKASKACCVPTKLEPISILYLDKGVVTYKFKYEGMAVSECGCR
Kind of series: SDS-PAGE densitometry after IMAC purification. Conditions: chain shown with the change.

Regarding “BMP-9 dimer (disulfide-linked BMP-9 growth factor homodimer) (from UniProt Q9UK05 320-429) (ligand)”, the EC50 of pSMAD1/5/9 (western blot) in serum-starved HUVECs, 45 minutes, dimers 0.001–1.62 ng/mL in series [1] worked out at 3.3 pM. “BMP-9 monomer (cysteinylated BMP-9 growth factor) (from UniProt Q9UK05 320-429) (ligand)”: the EC50 of pSMAD1/5/9 (western blot) in serum-starved HUVECs, 45 minutes, monomers 0.01–54 ng/mL in series [2] was determined as 124 pM.

B1: BMP-10 Crystal Chimera (growth factor from Pro9-(X)-BMP-10 Crystal Chimera) (ligand, human)
chain: DDGNYCKRTPLYIDFKEIGWDSWIIAPPGYEAYECRGVCFFPLAEHLTPTKHAIIQTLVHLKNSQKASKACCVPTKLEPISILYLDKGVVTLKYKYEGMAVSECGCR
notes: human proBMP10 residues 320-424 with five residues replaced by BMP-9 crystal contacts; numbers count on the precursor; Expressed behind the BMP-9 prodomain (proBMP9 residues 23-315); also called chimeric BMP-10; source: expi293 (suspension HEK293), expressed as Pro9-(X)-BMP-10 Crystal Chimera; purified
For the molecule B1, in series [3], the binding result was “binds”.

B2: BMP-10 monomer (ligand)
chain: NAKGNYCKRTPLYIDFKEIGWDSWIIAPPGYEAYECRGVCNYPLAEHLTPTKHAIIQALVHLKNSQKASKACCVPTKLEPISILYLDKGVVTYKFKYEGMAVSECGCR
modifications: cysteinylated (+119 Da); the paper takes the site to be the interchain cysteine
Turning to B2, in the series with BMP-10 monomer (human), the EC50 of pSMAD1/5/9 (western blot) in serum-starved HUVECs, 45 minutes, monomers 0.01–54 ng/mL was found to be 164 pM.

B3: BMP-10 dimer (ligand)
chain: B2 chain
modifications: interchain disulfide
For the molecule B3, the EC50 of pSMAD1/5/9 (western blot) in serum-starved HUVECs, 45 minutes, dimers 0.001–1.62 ng/mL with BMP-10 dimer (human) was determined as 5.9 pM.

B4: Pro-(X)-BMP-10, O95393 R353K (protein)
chain: T1 chain
For B4, the other: dimer over monomer ratio in series [4] amounted to 0.9.
